Data published in US20190316211A1, “ONCOGENIC ALTERNATIVE SPLICING SWITCH OF PACE4 IN CANCER” (SOCIETE DE COMMERCIALISATION DES PRODUITS DE LA RECHERCHE …, priority 2016, published 2019).

Tests used:
[1] = molecular target: T1, soluble furin (Homo sapiens, UniProt P09958); assay: GDF-15 spanning peptide cleavage monitored by HPLC; type: biochemical; settings: 37° C., 1 h, pH 7.5
T1 construct: recombinant PACE4 or soluble furin (16U); made in house; host or cells: S2 cells (said of recombinant PCs in general)
T1 sequence (P09958 108-715 limits assumed): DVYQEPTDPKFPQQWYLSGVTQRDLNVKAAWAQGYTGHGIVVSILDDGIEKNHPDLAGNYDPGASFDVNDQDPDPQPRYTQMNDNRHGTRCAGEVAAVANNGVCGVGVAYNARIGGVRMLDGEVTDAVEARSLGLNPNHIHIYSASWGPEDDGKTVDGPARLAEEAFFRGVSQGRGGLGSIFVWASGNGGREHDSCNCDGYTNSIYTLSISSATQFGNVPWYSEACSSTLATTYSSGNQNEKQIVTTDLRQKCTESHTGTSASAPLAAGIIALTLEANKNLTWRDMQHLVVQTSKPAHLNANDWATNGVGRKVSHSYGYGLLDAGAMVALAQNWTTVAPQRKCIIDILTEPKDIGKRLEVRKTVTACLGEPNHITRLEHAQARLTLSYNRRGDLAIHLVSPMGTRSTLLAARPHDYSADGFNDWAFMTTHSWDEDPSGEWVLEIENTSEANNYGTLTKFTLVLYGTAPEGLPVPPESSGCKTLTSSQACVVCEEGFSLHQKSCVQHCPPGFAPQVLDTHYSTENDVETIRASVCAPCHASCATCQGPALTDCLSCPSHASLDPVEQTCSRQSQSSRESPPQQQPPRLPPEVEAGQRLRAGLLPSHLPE
Excerpt: (§1) GDF-15 is known to supports both the proliferation and clonogenic potential of LNCaP cells, which is also in line with the observed phenotypes for both PACE4 knockdown and overexpressing cells. This protein is synthetized as a 35 kDa proprotein which requires a PC-based cleavage at the […]^196↓, site to generate a ˜17 kDa C-terminal mature form that associates as a disulfide-linked dimer further secreted in the medium. GDF-15 is only detected in LNCaP cells whereas DU145 express very low levels in both medium and cell lysates (FIGS. 10C and D). […]
(§2) GDF-15 peptide (40 μg) was incubated at 37° C. with recombinant PACE4 or soluble furin (16U) in 100 mM Hepes buffer containing 1 mM CaCl2, 1 mM 3-mercaptoethanol, and 1.8 mg/mL BSA, pH 7.5 (total sample volume: 300 μl) over a period of 1 h. […] After incubation, the reactions were immediately analyzed by the analytical HPLC (Agilent Technologies, 1100 series with a diode array detector and a fraction collector; injection volume: 95 μl, gradient: 2 to 25% […] in 50 min; [A]0.1% aq TFA and [B] acetonitrile+0.1% aq TFA; column: an Agilent Eclipse XDB C18 column (5 μm, 4.6×250 mm). The collected fractions were analysed by SELDI-TOF mass spectrometer (Bio-Rad Laboratories) to identify the cleavage product.

[2] = molecular target: T2, recombinant PACE4 (Homo sapiens, UniProt P29122); assay: GDF-15 spanning peptide cleavage monitored by HPLC; type: biochemical; settings: 37° C., 1 h, pH 7.5
T2 construct: made in house; host or cells: S2 cells
T2 sequence (P29122 150-969): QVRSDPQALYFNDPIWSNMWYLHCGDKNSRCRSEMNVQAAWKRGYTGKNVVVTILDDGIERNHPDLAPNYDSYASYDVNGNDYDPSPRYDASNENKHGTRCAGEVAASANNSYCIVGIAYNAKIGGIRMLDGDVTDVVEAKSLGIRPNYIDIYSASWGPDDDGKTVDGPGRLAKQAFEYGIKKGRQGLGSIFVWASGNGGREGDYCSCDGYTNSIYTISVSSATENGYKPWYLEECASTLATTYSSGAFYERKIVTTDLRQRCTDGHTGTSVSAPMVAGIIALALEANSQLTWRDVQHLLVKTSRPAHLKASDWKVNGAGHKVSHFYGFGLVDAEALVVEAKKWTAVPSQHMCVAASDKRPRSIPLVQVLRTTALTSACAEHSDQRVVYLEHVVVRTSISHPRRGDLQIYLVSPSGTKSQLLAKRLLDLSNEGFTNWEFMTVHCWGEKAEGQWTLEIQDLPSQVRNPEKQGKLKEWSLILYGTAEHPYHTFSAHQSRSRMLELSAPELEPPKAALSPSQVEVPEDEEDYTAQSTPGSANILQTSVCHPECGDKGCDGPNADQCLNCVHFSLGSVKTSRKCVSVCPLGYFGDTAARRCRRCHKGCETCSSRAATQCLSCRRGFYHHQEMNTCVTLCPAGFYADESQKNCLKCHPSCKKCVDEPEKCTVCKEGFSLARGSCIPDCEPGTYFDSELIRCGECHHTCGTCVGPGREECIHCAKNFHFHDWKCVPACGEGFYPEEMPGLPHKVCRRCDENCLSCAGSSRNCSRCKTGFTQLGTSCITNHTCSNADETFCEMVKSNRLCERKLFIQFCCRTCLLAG
Excerpt: as §1, §2

QAARGRRRARARNG (Ac-QAARGRRRARARNG-NH2) [synthetic N-acetylated peptide spanning the GDF-15 cleavage site]
cleavage of peptide at the QAARGRRRAR site [1]: cleaved by both PCs | cleavage of peptide at the QAARGRRRAR site [2]: cleaved by both PCs
